Laboratory results reported in US20240158537A1.

Molecular target: IL-7 receptor (IL-7R), heterodimer of IL-7R alpha (CD127) and common gamma chain (CD132), on primary human T cells (human) (UniProt P16871)
Test: cell-based or functional assay

Sequence of IL-7 receptor (IL-7R), heterodimer of IL-7R alpha (CD127) and common gamma chain (CD132), on primary human T cells (human) (P16871 21-459, chain 1 of 2): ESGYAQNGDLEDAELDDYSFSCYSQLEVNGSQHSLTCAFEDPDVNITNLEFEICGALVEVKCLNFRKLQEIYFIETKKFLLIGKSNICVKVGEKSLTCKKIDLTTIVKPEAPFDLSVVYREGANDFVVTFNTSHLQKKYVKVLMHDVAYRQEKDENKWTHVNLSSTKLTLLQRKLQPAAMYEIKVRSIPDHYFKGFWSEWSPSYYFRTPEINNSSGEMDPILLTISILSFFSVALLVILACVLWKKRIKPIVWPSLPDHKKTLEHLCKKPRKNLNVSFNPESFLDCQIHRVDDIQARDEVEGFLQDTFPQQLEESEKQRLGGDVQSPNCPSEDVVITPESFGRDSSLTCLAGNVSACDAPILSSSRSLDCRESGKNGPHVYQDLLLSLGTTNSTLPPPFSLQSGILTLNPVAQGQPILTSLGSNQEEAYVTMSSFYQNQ
Sequence of IL-7 receptor (IL-7R), heterodimer of IL-7R alpha (CD127) and common gamma chain (CD132), on primary human T cells (human) (P31785 23-369, chain 2 of 2, further chain): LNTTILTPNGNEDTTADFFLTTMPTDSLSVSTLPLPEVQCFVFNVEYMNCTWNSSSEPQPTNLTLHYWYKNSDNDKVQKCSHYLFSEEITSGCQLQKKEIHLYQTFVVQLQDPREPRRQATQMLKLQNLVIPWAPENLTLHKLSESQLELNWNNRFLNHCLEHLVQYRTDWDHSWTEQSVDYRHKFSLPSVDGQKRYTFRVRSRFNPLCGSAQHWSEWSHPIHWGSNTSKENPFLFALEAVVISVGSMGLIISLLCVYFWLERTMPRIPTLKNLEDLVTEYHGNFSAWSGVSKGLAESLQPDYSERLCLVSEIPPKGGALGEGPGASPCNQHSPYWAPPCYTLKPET

- Avg EC50 (nM) (human pSTAT5), CD4 Memory: 0.001 nM
- Avg EC50 (nM) (human pSTAT5), CD4 Naive: 0.001 nM
- Avg EC50 (nM) (human pSTAT5), CD4 Treg: 0.033 nM
- Avg EC50 (nM) (human pSTAT5), CD8 Memory: 0.006 nM
- Avg EC50 (nM) (human pSTAT5), CD8 Naive: 0.002 nM
B1: WT IL-7 His (SEQ ID NO: 2), native IL-7 with His-tag (ligand)
chain: DCDIEGKDGKQYESVLMVSIDQLLDSMKEIGSNCLNNEFNFFKRHICDANKEGMFLFRAARKLRQFLKMNSTGDFDLHLLKVSEGTTILLNCTGQVKGRKPAALGEAQPTKSLEENKSLKEQKKLNDLCFLKRLLQEIKTCWNKILMGTKEHVDHHHHHH
